In the data set the target is Hsf1-StrepTag II;Ssa1 (Hsp70) (Saccharomyces cerevisiae;Saccharomyces …, UniProt P10961;P10591 1-833;1-642, |). In words: EMSA; 0.25 uM complex, 0.05 uM probe; 10 mM Tris-HCl pH 7.5, 50 mM KCl, 2.5 mM DTT, 0.25% Tween 20, 20 min at 20 C; 6% DNA retardation gel in TBE (modified: 1 mM MgCl2, no DTT listed, 0.7% agarose). Particulars: protein: recombinant;recombinant; tags: C-terminal StrepTag II;6xHis-SUMO removed by Ulp1; chain copies: 3;1; blunt.
Hsf1-StrepTag II;Ssa1 (Hsp70), sequence (P10961 whole entry, chain 1 of 2): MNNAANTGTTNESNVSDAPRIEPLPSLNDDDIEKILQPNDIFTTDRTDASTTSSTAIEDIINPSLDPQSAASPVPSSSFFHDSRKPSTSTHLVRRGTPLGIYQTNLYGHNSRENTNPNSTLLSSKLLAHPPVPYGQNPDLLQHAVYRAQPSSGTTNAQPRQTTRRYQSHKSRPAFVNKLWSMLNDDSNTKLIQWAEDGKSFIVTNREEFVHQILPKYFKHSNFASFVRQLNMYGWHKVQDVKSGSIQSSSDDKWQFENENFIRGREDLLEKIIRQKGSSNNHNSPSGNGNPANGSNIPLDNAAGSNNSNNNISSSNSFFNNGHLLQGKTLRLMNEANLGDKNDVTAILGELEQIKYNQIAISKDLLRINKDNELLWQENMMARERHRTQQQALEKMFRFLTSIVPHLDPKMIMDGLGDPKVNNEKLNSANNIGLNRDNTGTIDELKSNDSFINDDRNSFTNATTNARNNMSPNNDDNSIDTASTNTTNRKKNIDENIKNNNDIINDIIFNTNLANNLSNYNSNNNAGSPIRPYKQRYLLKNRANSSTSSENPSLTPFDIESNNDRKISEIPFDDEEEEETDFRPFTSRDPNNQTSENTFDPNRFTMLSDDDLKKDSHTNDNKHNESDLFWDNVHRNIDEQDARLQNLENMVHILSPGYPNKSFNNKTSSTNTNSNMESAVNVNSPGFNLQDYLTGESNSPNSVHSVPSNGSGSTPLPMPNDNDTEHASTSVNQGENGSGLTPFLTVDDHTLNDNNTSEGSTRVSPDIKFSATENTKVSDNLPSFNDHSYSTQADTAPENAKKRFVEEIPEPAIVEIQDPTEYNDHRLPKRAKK
Hsf1-StrepTag II;Ssa1 (Hsp70), sequence (P10591 whole entry, chain 2 of 2): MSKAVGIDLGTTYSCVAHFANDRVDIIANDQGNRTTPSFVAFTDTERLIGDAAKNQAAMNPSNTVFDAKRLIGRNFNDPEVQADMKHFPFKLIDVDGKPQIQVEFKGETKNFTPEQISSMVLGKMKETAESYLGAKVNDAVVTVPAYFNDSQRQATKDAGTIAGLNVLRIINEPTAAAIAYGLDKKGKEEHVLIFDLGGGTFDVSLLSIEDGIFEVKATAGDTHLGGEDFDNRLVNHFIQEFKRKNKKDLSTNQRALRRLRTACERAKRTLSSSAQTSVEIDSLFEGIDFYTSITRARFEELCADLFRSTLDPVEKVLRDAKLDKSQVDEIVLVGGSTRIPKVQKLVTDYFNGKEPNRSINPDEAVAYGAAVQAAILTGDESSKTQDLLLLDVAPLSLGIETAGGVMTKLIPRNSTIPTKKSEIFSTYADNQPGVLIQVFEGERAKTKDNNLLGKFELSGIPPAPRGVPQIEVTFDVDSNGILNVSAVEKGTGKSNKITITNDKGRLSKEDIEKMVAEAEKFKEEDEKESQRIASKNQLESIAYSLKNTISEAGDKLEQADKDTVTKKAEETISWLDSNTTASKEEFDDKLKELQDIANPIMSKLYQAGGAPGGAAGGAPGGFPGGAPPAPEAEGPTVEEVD

B1: HSE-DY682 (dsDNA)
DNA 1: TCGATTTTCCAGAACGTTCCATCGGC
DNA 2: GCCGATGGAACGTTCTGGAAAATCGA
Turning to B1, the binding result is “binds”.

For the origin of these results see paper PMC6779467, “Cytoplasmic protein misfolding titrates Hsp70 to activate nuclear Hsf1”.
